Data from the supplement of paper PMC10567573.

B1: UFD1L (parent)
chain: EAGGRFVAFSGEGQSLRKKGRKP
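Further: lentivirally expressed fusions sorted by FACS into six bins by GFP to DsRed ratio, PSI derived from sequencing read proportions per bin multiplied by bin number.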

Variants of: B1
Assay: protein stability index of a GFP-peptide fusion (GPS, HEK-293T) (PSI 1-6); higher = more stable
Conditions: c terminus: native
With EAGGRFHAFSGEGQSLRKKGRKP [V7H] the protein stability index was 1.37. With EAGGRFIAFSGEGQSLRKKGRKP [V7I] the protein stability index was 1.9. In the case of EAGGRFLAFSGEGQSLRKKGRKP [V7L], the protein stability index is reported as 1.5. EAGGRFNAFSGEGQSLRKKGRKP [V7N] gave a protein stability index of 2.18. With EAGGRFSAFSGEGQSLRKKGRKP [V7S] the protein stability index was 1.72. Variant EAGGRFTAFSGEGQSLRKKGRKP [V7T] has a protein stability index of 1.18. Work on EAGGRFYAFSGEGQSLRKKGRKP [V7Y] yielded a protein stability index of 1.12. With EAGGRFVFFSGEGQSLRKKGRKP [A8F] the protein stability index was 2.8. In the case of EAGGRFVHFSGEGQSLRKKGRKP [A8H], the protein stability index is reported as 1.34. For EAGGRFVIFSGEGQSLRKKGRKP [A8I], the protein stability index was 1.11. Work on EAGGRFVLFSGEGQSLRKKGRKP [A8L] yielded a protein stability index of 1.5. Variant EAGGRFVNFSGEGQSLRKKGRKP [A8N] has a protein stability index of 1.41. EAGGRFVQFSGEGQSLRKKGRKP [A8Q] showed a protein stability index of 2.18. Work on EAGGRFVTFSGEGQSLRKKGRKP [A8T] yielded a protein stability index of 1.77. Variant EAGGRFVAASGEGQSLRKKGRKP [F9A] has a protein stability index of 3.29. EAGGRFVAESGEGQSLRKKGRKP [F9E] gave a protein stability index of 4.02. With EAGGRFVAHSGEGQSLRKKGRKP [F9H] the protein stability index was 1. With EAGGRFVAISGEGQSLRKKGRKP [F9I] the protein stability index was 1.19. In the case of EAGGRFVAKSGEGQSLRKKGRKP [F9K], the protein stability index is reported as 1.75. With EAGGRFVAPSGEGQSLRKKGRKP [F9P] the protein stability index was 3.64. Work on EAGGRFVAQSGEGQSLRKKGRKP [F9Q] yielded a protein stability index of 2.25. EAGGRFVARSGEGQSLRKKGRKP [F9R] showed a protein stability index of 3.73. EAGGRFVATSGEGQSLRKKGRKP [F9T] showed a protein stability index of 2.28. EAGGRFVAVSGEGQSLRKKGRKP [F9V] showed a protein stability index of 2.02. With EAGGRFVAWSGEGQSLRKKGRKP [F9W] the protein stability index was 2.96. EAGGRFVAFAGEGQSLRKKGRKP [S10A] showed a protein stability index of 1.38. With EAGGRFVAFDGEGQSLRKKGRKP [S10D] the protein stability index was 2.36. In the case of EAGGRFVAFIGEGQSLRKKGRKP [S10I], the protein stability index is reported as 1.72. Variant EAGGRFVAFKGEGQSLRKKGRKP [S10K] has a protein stability index of 1.4. With EAGGRFVAFNGEGQSLRKKGRKP [S10N] the protein stability index was 2.98. With EAGGRFVAFPGEGQSLRKKGRKP [S10P] the protein stability index was 2.83. Variant EAGGRFVAFQGEGQSLRKKGRKP [S10Q] has a protein stability index of 3.48. EAGGRFVAFTGEGQSLRKKGRKP [S10T] showed a protein stability index of 1.77. In the case of EAGGRFVAFSAEGQSLRKKGRKP [G11A], the protein stability index is reported as 1.26. For EAGGRFVAFSCEGQSLRKKGRKP [G11C], the protein stability index was 2.52. In the case of EAGGRFVAFSLEGQSLRKKGRKP [G11L], the protein stability index is reported as 1.85. With EAGGRFVAFSNEGQSLRKKGRKP [G11N] the protein stability index was 1.82. EAGGRFVAFSPEGQSLRKKGRKP [G11P] gave a protein stability index of 2.21. Variant EAGGRFVAFSSEGQSLRKKGRKP [G11S] has a protein stability index of 1.54. In the case of EAGGRFVAFSGKGQSLRKKGRKP [E12K], the protein stability index is reported as 1.69. Variant EAGGRFVAFSGTGQSLRKKGRKP [E12T] has a protein stability index of 3.41. For EAGGRFVAFSGEAQSLRKKGRKP [G13A], the protein stability index was 2.22. For EAGGRFVAFSGEIQSLRKKGRKP [G13I], the protein stability index was 1.28. With EAGGRFVAFSGEKQSLRKKGRKP [G13K] the protein stability index was 2.03. For EAGGRFVAFSGELQSLRKKGRKP [G13L], the protein stability index was 2.52. Work on EAGGRFVAFSGENQSLRKKGRKP [G13N] yielded a protein stability index of 1.55. Variant EAGGRFVAFSGEPQSLRKKGRKP [G13P] has a protein stability index of 2.73. For EAGGRFVAFSGEQQSLRKKGRKP [G13Q], the protein stability index was 1.16. EAGGRFVAFSGERQSLRKKGRKP [G13R] gave a protein stability index of 1.35. With EAGGRFVAFSGESQSLRKKGRKP [G13S] the protein stability index was 1.9. With EAGGRFVAFSGETQSLRKKGRKP [G13T] the protein stability index was 1.23. In the case of EAGGRFVAFSGEVQSLRKKGRKP [G13V], the protein stability index is reported as 2.38. In the case of EAGGRFVAFSGEGASLRKKGRKP [Q14A], the protein stability index is reported as 1.83. With EAGGRFVAFSGEGCSLRKKGRKP [Q14C] the protein stability index was 3.07. With EAGGRFVAFSGEGDSLRKKGRKP [Q14D] the protein stability index was 1.26. Variant EAGGRFVAFSGEGESLRKKGRKP [Q14E] has a protein stability index of 1.58. In the case of EAGGRFVAFSGEGFSLRKKGRKP [Q14F], the protein stability index is reported as 2.93. In the case of EAGGRFVAFSGEGGSLRKKGRKP [Q14G], the protein stability index is reported as 2.12. Work on EAGGRFVAFSGEGNSLRKKGRKP [Q14N] yielded a protein stability index of 2.02. In the case of EAGGRFVAFSGEGRSLRKKGRKP [Q14R], the protein stability index is reported as 2.51. EAGGRFVAFSGEGSSLRKKGRKP [Q14S] showed a protein stability index of 2.5. Variant EAGGRFVAFSGEGVSLRKKGRKP [Q14V] has a protein stability index of 2.4. EAGGRFVAFSGEGQALRKKGRKP [S15A] showed a protein stability index of 2.2. Work on EAGGRFVAFSGEGQDLRKKGRKP [S15D] yielded a protein stability index of 1.87. In the case of EAGGRFVAFSGEGQGLRKKGRKP [S15G], the protein stability index is reported as 2.42. EAGGRFVAFSGEGQHLRKKGRKP [S15H] gave a protein stability index of 2.1. EAGGRFVAFSGEGQLLRKKGRKP [S15L] showed a protein stability index of 2.95. EAGGRFVAFSGEGQPLRKKGRKP [S15P] gave a protein stability index of 2.16. Work on EAGGRFVAFSGEGQRLRKKGRKP [S15R] yielded a protein stability index of 2.45. With EAGGRFVAFSGEGQTLRKKGRKP [S15T] the protein stability index was 1.84. Work on EAGGRFVAFSGEGQVLRKKGRKP [S15V] yielded a protein stability index of 1.72. Variant EAGGRFVAFSGEGQYLRKKGRKP [S15Y] has a protein stability index of 2.91. In the case of EAGGRFVAFSGEGQSCRKKGRKP [L16C], the protein stability index is reported as 2.79. EAGGRFVAFSGEGQSDRKKGRKP [L16D] showed a protein stability index of 3.34. Work on EAGGRFVAFSGEGQSERKKGRKP [L16E] yielded a protein stability index of 2.53. For EAGGRFVAFSGEGQSMRKKGRKP [L16M], the protein stability index was 1.65. In the case of EAGGRFVAFSGEGQSNRKKGRKP [L16N], the protein stability index is reported as 2.61. In the case of EAGGRFVAFSGEGQSPRKKGRKP [L16P], the protein stability index is reported as 1.18. Work on EAGGRFVAFSGEGQSQRKKGRKP [L16Q] yielded a protein stability index of 2.72. EAGGRFVAFSGEGQSRRKKGRKP [L16R] showed a protein stability index of 2.64. EAGGRFVAFSGEGQSSRKKGRKP [L16S] gave a protein stability index of 3.42. Work on EAGGRFVAFSGEGQSTRKKGRKP [L16T] yielded a protein stability index of 2.18. With EAGGRFVAFSGEGQSVRKKGRKP [L16V] the protein stability index was 2.98. In the case of EAGGRFVAFSGEGQSWRKKGRKP [L16W], the protein stability index is reported as 1.03. EAGGRFVAFSGEGQSYRKKGRKP [L16Y] gave a protein stability index of 2.51. EAGGRFVAFSGEGQSLCKKGRKP [R17C] showed a protein stability index of 1.48. Variant EAGGRFVAFSGEGQSLDKKGRKP [R17D] has a protein stability index of 3. In the case of EAGGRFVAFSGEGQSLGKKGRKP [R17G], the protein stability index is reported as 2.95. Variant EAGGRFVAFSGEGQSLHKKGRKP [R17H] has a protein stability index of 2.2. For EAGGRFVAFSGEGQSLKKKGRKP [R17K], the protein stability index was 2.88. With EAGGRFVAFSGEGQSLLKKGRKP [R17L] the protein stability index was 2.18. With EAGGRFVAFSGEGQSLMKKGRKP [R17M] the protein stability index was 2.25. In the case of EAGGRFVAFSGEGQSLNKKGRKP [R17N], the protein stability index is reported as 3.46. EAGGRFVAFSGEGQSLSKKGRKP [R17S] gave a protein stability index of 2.73. EAGGRFVAFSGEGQSLTKKGRKP [R17T] gave a protein stability index of 2.03. EAGGRFVAFSGEGQSLRCKGRKP [K18C] gave a protein stability index of 2.11. In the case of EAGGRFVAFSGEGQSLRDKGRKP [K18D], the protein stability index is reported as 2.01.
